Here are results for one molecule from US20220372577, “ANALYTE DETECTION METHOD” (IMPERIAL COLLEGE OF SCIENCE, TECHNOLOGY AND MEDICINE, published 2022).

This series deals with alpha-thrombin (UniProt P00734;P00734 P00734:328-363,P00734:364-622). In words: binding in 5% human serum, 0.1-100 nM thrombin, 30 pM MB-Carrier; comparable to 0.1 M KCl.

B1: TBA-embedded molecular beacon on lambda-DNA carrier (MB-Carrier) (structured_DNA)
DNA: AGGTCGCCGCCCTCCAACGGTTGGTGTGGTTGG
modifications: internal FAM on T13; 3' DABCYL
Consider B1, for which the binding result is given as “binds”.
